Results from US20090252748A1 (Biogen, published 2009).
Like-named read-outs stand apart in the source and are kept apart here. Values belong to the binder of their own block, whether it stands above or below them.

Columns and labels:
[1] = biological target: T1, mouse Sp35 protein (ELISA, Western, KD; form not stated) (mouse, UniProt Q9D1T0 34-532, limits assumed); assay: method not stated
T1 construct: also called mSp35; mLINGO1
T1 sequence (looked up): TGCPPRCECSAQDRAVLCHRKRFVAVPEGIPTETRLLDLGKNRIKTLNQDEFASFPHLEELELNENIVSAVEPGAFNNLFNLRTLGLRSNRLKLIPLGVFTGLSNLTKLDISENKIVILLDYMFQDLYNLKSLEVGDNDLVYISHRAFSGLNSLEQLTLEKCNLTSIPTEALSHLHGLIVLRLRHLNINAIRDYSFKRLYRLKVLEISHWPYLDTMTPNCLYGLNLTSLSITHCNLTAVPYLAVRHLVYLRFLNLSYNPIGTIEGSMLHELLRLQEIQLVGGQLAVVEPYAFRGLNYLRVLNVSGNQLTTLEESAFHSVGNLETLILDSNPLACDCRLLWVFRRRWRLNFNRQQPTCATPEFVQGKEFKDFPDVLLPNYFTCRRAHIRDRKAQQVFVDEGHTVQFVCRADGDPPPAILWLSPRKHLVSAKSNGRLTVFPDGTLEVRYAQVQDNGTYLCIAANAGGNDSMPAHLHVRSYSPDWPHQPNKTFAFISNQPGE

[2] = biological target: T2, human Sp35 protein (ELISA, Western, KD; form not stated) (human, UniProt Q96FE5 40-538, limits assumed); assay: method not stated
T2 construct: also called huSp35; hLINGO-1
T2 sequence: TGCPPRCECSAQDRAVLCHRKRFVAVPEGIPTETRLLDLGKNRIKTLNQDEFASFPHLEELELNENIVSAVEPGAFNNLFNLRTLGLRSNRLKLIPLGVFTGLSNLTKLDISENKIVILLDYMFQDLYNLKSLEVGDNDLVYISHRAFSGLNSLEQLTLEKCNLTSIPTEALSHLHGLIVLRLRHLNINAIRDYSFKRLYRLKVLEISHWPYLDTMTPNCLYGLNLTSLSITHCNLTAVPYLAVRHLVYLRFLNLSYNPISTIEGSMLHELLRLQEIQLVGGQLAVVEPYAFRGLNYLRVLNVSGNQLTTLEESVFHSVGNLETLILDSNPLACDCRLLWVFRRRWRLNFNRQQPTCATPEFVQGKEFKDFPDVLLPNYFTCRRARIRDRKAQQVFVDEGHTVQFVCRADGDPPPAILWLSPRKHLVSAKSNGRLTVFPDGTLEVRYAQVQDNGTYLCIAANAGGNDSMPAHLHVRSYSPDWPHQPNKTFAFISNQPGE

[3] = biological target: T2, human Sp35 protein (ELISA, Western, KD; …); assay: method not stated; second figure of the same phrase, inconsistent with the 10 nM already written
[4] = biological target: T2, human Sp35 protein (ELISA, Western, KD; …); assay: ELISA
[5] = biological target: T3, full-length human Sp35 with an N-terminal HA tag (lysate of transfected COS-1 cells) (human, UniProt Q96FE5 40-620); assay: IP
T3 construct: used here for all IP columns headed huSp35 / hLINGO-1; also called huSp35 (IP); hLINGO-1 (IP)
T3 sequence: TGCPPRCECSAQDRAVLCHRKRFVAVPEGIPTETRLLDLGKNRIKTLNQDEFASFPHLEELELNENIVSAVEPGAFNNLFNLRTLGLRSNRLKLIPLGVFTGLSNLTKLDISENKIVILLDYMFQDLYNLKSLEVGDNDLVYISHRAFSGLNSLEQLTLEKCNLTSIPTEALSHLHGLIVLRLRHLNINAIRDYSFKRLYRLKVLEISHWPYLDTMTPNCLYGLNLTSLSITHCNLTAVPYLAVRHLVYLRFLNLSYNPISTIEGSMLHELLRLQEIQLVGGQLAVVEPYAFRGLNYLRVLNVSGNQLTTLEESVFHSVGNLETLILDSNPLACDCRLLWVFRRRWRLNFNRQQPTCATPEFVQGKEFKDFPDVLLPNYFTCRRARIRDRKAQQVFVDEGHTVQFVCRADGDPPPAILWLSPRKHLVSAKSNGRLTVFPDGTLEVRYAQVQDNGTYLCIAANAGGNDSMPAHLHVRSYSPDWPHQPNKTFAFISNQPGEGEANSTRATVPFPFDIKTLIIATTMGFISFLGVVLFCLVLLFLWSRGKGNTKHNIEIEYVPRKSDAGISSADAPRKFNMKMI

[6] = biological target: T3, full-length human Sp35 with an …; assay: IP; remark: listed apart in the source
Experimental: To perform the immunoprecipitation, COS-1 cells expressing Sp35, fused to a hemaglutinin (HA) tag on the N-terminus, were produced by transiently transfecting COS-1 cells with a DNA construct which expresses the full-length Sp35 protein with an HA tag. Cells were harvested 48 hr after transfection and were lysed in 1 ml lysis buffer (50 mM HEPES, pH 7.5, 150 mM NaCl, 1.5 mM MgCl₂, 1 mM EGTA, 1% Triton X-100 and 10% glycerol) for 30 min at 4° C. After centrifugation at 14,000×g for 15 min, the supernatants were incubated with ProteinA/G-Sepharose beads (Santa Cruz) at 4° C. for 1 hr, and then incubated at 4° C. for 1 hr with either the 1A7 or the 2F3 anti-Sp35 murine monoclonal antibodies. The beads were washed 3 times with lysis buffer, boiled in Laemmli sample buffer, subjected to 4-20% SDS-PAGE, and analyzed by Western blotting using an antibody which recognizes the HA tag. As shown on the SDS-PAGE gel, monoclonal antibodies 1A7 and 2F3, immunoprecipitated human and murine Sp35 (FIG. 1). […] Similarly, monoclonal antibodies 1G7, 2B10, 2F3, 3P4C2.2D2, 3P4C8.2G9, Li01, Li03, Li05, Li06, Li07, Li08, Li11, Li12, 7P1D5.1G9 and 3B5.2 immunoprecipitate human or mouse or human and mouse Sp35 (See Table 3B and 3C). Additionally, Li08 immunoprecipitates AP-Sp35 and monoclonal antibodies 1B6.4 and 3E3.1 immunoprecipitate endogenous Sp35 (See Table 3B).

B1: 1A7 monoclonal antibody (antibody, mouse IgG1, V domains shown)
VH: QVQLVQSGPELKKPGETVKISCKASGYTFTNYGMNWVKQAPGKGLKWMGWINTDTGEPTYTEDFQGRFAFSLETSASTVYLQFNNLKNEDTATYFCAREGVHFDYWGQGTTVTVSS
VL: QIVLTQSPAIMSASPGEKVTMTCSASSSVSYMHWYQQKSGTSPKRWIYDTSKLASGVPARFSGSGSGTSYSLTISSMEAEDAATYYCQQWSSNPFTFGSGTKLEIK
notes: murine IgG1/kappa; also called P1A7; 1A7 mAb
Kd [1]: 20000 nM
Kd [2]: 10 nM
Kd [3]: 1 nM

B2: 28-D02 (Li10) Fab (Fab, V domains shown)
VH: EVQLLESGGGLVQPGGSLRLSCAASGFTFSTYPMVWVRQAPGKGLEWVSWIGPSGGVTAYADSVKGRFTISRDNSKNTLYLQMNSLRAEDTAVYYCARPYSSGWWDFDLWGRGTLVTVSS
VL: DIQMTQSPSSMSASVGDTVTITCRASQGIGNWLAWYQQKPGKAPTLLIYAASSLESGVPSRFTGSGSSSGIDFTLTISDLHPEDLATYYCQQAQTFPLTFGGGTRVDLK
notes: human, kappa; also called Dli10
binding result [4]: binds

Next, values leading:

binding result [4]: binds
binding result [5]: binds
B3: 80-D02 (Dli34) Fab (Fab, V domains shown)
VH: EVQLLESGGGLVQPGGSLRLSCAASGFTFSNYEMYWVRQAPGKGLEWVSGIYSSGGITVYADSVKGRFTISRDNSKNTLYLQMNSLRAEDTAVYYCARAAILDWYFDLWGRGTLVTVSS
VL: DIQMTQSPSSLSASVGDRVTITCHASQDISNYLSWYQQKPGKAPKLLIYDAFNLETGVPSRFSGSGSGTDFTFTISSLQPEDFATYYCQHYDNLPFTFGPGTRVAIR
notes: human

binding result [4]: binds
binding result [6]: binds
B4: 35-E04 (Li03) Fab (Fab, V domains shown)
VH: EVQLLESGGGLVQPGGSLRLSCAASGFTFSQYPMEWVRQAPGKGLEWVSGIYPSGGSTVYADSVKGRFTISRDNSKNTLYLQMNSLRAEDTAVYYCARAGQWLGDFDYWGQGTLVTVSS
VL: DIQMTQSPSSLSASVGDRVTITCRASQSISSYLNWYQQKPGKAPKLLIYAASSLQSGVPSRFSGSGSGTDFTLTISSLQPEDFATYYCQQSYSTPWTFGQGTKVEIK
notes: human, kappa; also called Dli03
